# According to patent US9358302:
# Key:
# Assay in all cases: cell-based or functional assay
# [1] = molecular target: GBSIII-OVAp (GBSIII conjugated to N-acetylated, C-terminally extended OVA323-339)
# [2] = molecular target: OVA peptide 323-339 (OVAp)
# [3] = molecular target: scrambled OVA peptide, scOVAp
substance,measurement,setting,value
T-cell receptor of DO11.10 transgenic mice that recognizes OVA peptide 323-339 in the context of MHC class II (I-A^d) (TCR),"T cell proliferation, [3H]thymidine incorporation, 10 µg GBSIII-OVAp",[1],12700 cpm
same,fold lower T cell proliferation against the same amount of OVAp,[1],23 fold
same,"T cell proliferation, [3H]thymidine incorporation, 2.5 µg OVAp",[2],285000 cpm
same,"T cell proliferation, stimulation index (SI), 0.013 µg OVAp",[2],35 SI
same,"T cell proliferation, stimulation index (SI), 0.13 µg OVAp",[2],781 SI
same,"T cell proliferation, stimulation index (SI), 1.3 µg OVAp",[2],2940 SI
same,"T cell proliferation, [3H]thymidine incorporation",[3],< 500 cpm
